Source: patent publication US20230295347A1 (published 2023)

Assays:
[1] = biological target: T1, cysteine-rich domain (CRD) of human Fzd4 (UniProt Q9ULV1 40-161); assay: BLI
T1 chain: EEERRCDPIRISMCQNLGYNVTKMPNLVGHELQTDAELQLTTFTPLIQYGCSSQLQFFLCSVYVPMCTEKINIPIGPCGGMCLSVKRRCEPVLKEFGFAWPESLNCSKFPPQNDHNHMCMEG

[2] = biological target: T1, cysteine-rich domain (CRD) of human Fzd4; assay: SPR; apparent KD, average of four capture concentrations

B1: 4SD1-03_LALAPG (bispecific antibody)
heavy: EVQLVESGGGLVKPGGSLRLSCAASGFTFTNYAMSWVRQAPGKGLEWVSAISGSGGSTYYADSVKGRFTISRDDSKNTLYLQMNSLKTEDTAVYYCARATGFGTVVFDYWGQGTLVTVSSASTKGPSVFPLAPSSKSTSGGTAALGCLVKDYFPEPVTVSWNSGALTSGVHTFPAVLQSSGLYSLSSVVTVPSSSLGTQTYICNVNHKPSNTKVDKKVEPKSCDKTHTCPPCPAPEAAGGPSVFLFPPKPKDTLMISRTPEVTCVVVDVSHEDPEVKFNWYVDGVEVHNAKTKPREEQYNSTYRVVSVLTVLHQDWLNGKEYKCKVSNKALGAPIEKTISKAKGQPREPQVYTLPPSREEMTKNQVSLTCLVKGFYPSDIAVEWESNGQPENNYKTTPPVLDSDGSFFLYSKLTVDKSRWQQGNVFSCSVMHEALHNHYTQKSLSLSPGK
light: not shown
Kd [1]: 44.7 nM
Kd [2]: 729 nM
